No end group written: not given here. *: point of attachment. FITC = O=C1OC2(c3ccc(O)cc3Oc3cc(O)ccc32)c2ccc(NC(=S)*)cc21

Common to all, as to settings: both partners purified
The target in assay [1] is SARS-CoV-2 non-structural protein 9 (NSP9) (SARS-CoV-2, UniProt P0DTD1 4141-4253). Kind of assay: fluorescence polarisation.
Assay [2] concerns the target SARS-CoV-2 NSP3 ADRP domain (SARS-CoV-2, UniProt P0DTD1 1023-1192). The experiment in a line: fluorescence polarisation.
Assay [3] concerns the target T1, talin-1 phosphotyrosine binding (TLN1 PTB) domain (human, UniProt Q9Y490 309-401).
T1 construct: source: E. coli BL21 (DE3), purified (Ni Sepharose, tag cleaved with HRV 3C protease)
The experiment in a line: fluorescence polarisation; displacement: unlabelled peptide in serial dilution added to FITC-labelled probe peptide with the protein at 4x the KD value; 50 mM KPO4 pH 7.5; triplicates; sigmoidal dose-response fit. For orientation: In fluorescence polarisation assays a small probe gives low polarisation when free and higher when bound to something large.

The target of assay [4] is T2, talin‐1 PTB domain (309–401), tag cleaved, for FP (human, UniProt Q9Y490 309-401).
T2 construct: also called TLN1 PTB; source: E. coli BL21 (DE3), purified (Ni Sepharose, HRV 3C cleavage)
T2 sequence (Q9Y490 309-401): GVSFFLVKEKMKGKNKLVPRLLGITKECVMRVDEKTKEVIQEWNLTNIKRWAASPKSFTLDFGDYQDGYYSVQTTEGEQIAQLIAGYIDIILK
Kind of assay: fluorescence polarisation; human domains; saturation with FITC-labelled probe peptide or displacement by unlabelled peptide; 50 mM KPO4 pH 7.5, DTT; triplicates; the text does not tell which of the two gave each KD.

For assay [5], the target named is SARS-CoV-2 NSP3 UBl1 domain (SARS-CoV-2, UniProt P0DTD1 819-925). Kind of assay: fluorescence polarisation.
For assay [6], the target named is G3BP1 NTF2-like domain (1–139), tag cleaved, for FP (human, UniProt Q13283 1-139). Kind of assay: fluorescence polarisation.
Sequence of G3BP1 NTF2-like domain (1–139), tag cleaved, for FP (Q13283 1-139): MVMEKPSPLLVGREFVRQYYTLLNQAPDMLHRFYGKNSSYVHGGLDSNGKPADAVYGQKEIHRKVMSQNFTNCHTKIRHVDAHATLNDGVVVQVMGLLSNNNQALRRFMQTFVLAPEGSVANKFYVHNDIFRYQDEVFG
Assay [7] has as its target SARS-CoV-2 NSP3 SUD-M domain (SARS-CoV-2, UniProt P0DTD1 1356-1493). Kind of assay: fluorescence polarisation.
The target in assay [8] is talin-1 phosphotyrosine binding (TLN1 PTB) domain (human, UniProt Q9Y490 309-401). The experiment in a line: fluorescence polarisation; saturation (direct binding): human bait protein in serial dilution added to 10 nM-master-mix FITC-labeled probe peptide; 50 mM KPO4 pH 7.5, DTT; triplicates; fit to a quadratic equation.

The term Kd denotes the concentration at which binding is half-saturated. Read a high Kd as weaker binding. Turning to AEGIDIGEMPSYDLVL (FITC on the N-terminus, NKRF residues 8-23) [FITC-labelled NKRF peptide 8-23], binding in assay [1] was characterised by a dissociation constant (Kd) of 15.5 µM.
The term IC50 denotes the midpoint of a concentration-inhibition curve. In the case of STYLHPLSELLGIPLD [MBOAT1 wt peptide 17-32], half-maximal inhibition in assay [2] (IC50) was put at 175 µM.
The molecule Ac-LADLIFTDSKLYIPLE-NH2 [TPTE2 wt peptide 92-107] yielded an IC50 in assay [3] of 15 µM.
Still for that read-out and setting: under Ac-LADLIFTDSKLYAPLE-NH2 [TPTE2_I104A peptide 92-107] stands 55 µM.
On the same count and under the same terms, under Ac-LADLIFTDSKLWIPLE-NH2 [TPTE2_Y103W peptide 92-107] stands 66 µM.
Take Ac-LADLIFTDSKLYLPLE-NH2 [TPTE2_I104L peptide 92-107]: in assay [3], the IC50 was found to be 14 µM and the Kd was 4.5 µM.
As to Ac-LADLIYTDSKLYIPLE-NH2 [TPTE2_F97Y peptide 92-107], in assay [3], the IC50 turned out to be 440 µM.
Ac-LADLIWTDSKLYIPLE-NH2 [TPTE2_F97W peptide 92-107] gave an IC50 in assay [3] of 0.4 µM.
In turn, Ac-LADLIFTDNKLYIPLE-NH2 [TPTE2_S100N peptide 92-107] yielded an IC50 in assay [3] of 5.2 µM.
Consider Ac-LADLIFTDSALYIPLE-NH2 [TPTE2_K101A peptide 92-107], for which, in assay [3], the IC50 was found to be 45 µM and the dissociation constant Kd was 15 µM.
Molecule LADLIFTDSKLYIPLE (source: synthetic peptide (GeneCust)) [wild‐type TPTE2_(92‐107) peptide] registered a Kd in assay [4] of 4.5 µM.
On the same count and under the same terms, next, LADLIFTDSKLWIPLE (source: synthetic peptide (GeneCust)) [TPTE2 Y103W peptide]: 22 µM.
Still for that read-out and setting: next, LADLIFTDSKLYAPLE (source: synthetic peptide (GeneCust)) [TPTE2 I104A peptide]: 18 µM; LADLIFTDNKLYIPLE (source: synthetic peptide (GeneCust)) [TPTE2_(92‐107) S100N peptide]: 1.7 µM; LADLIYTDSKLYIPLE (source: synthetic peptide (GeneCust)) [TPTE2_(92‐107) F97Y peptide]: 150 µM.
In the case of LADLIWTDSKLYIPLE (source: synthetic peptide (GeneCust)) [TPTE2_(92‐107) F97W peptide], the Kd in assay [4] came out at 0.1 µM.
As to LADLIFTDSKLYLPLE (source: synthetic peptide (GeneCust)) [TPTE2 I104L peptide], the binding result in assay [4] is reported as “binds”.
Regarding QGAWLGAPEPWEPLLD [NOTCH4 wt peptide 1606-1621], the half-inhibitory concentration (IC50) in assay [1] is 205 µM.
Take PSDEGALLDQLYLALR [NCOA2 wt peptide 1073-1088]: the IC50 in assay [5] came to 139 µM.
In assay [6], APRITFGGPSDSTGS [wildtype SARS‐CoV‐2 N_(12–26) peptide] registered a dissociation constant Kd of 2.3 µM.
In assay [7], QFTEEDLHFVLYGVTPY [PRDM14 wt peptide 196-211] yielded an IC50 of 400 µM.
As to GSTYLHPLSELLGIPL (FITC on the N-terminus) [FITC-labelled MBOAT1 peptide 16-31], the Kd in assay [2] is 50.8 µM.
On to FTEEDLHFVLYGVTPS (FITC on the N-terminus) [FITC-labelled PRDM14 peptide 197-212], for which, in assay [7], the affinity, expressed as Kd, was 19 µM.
In the case of {FITC}-FPTDERSWVYSPLHYS (source: synthetic peptide (GeneCust)) [FITC-labeled PIP5K1C probe peptide FITC-FPTDERSWVYSPLHYS], in assay [8], binding was put at a Kd of 0.065 µM.
SDEGALLDQLYLALRN (FITC on the N-terminus) [FITC-labelled NCOA2 peptide 1074-1089] displayed a Kd in assay [5] of 67 µM.

For the origin of these results see publication PMC12102759 (Protein Science : A Publication of the Protein Society, 2025).
